Test results: patent US20210277104A1 (Janssen / Centocor, published 2021)
Where a chain is given by its changes, count along the chain named. Names and notes keep the numbering of the source.

B1: TNV148 (antibody, V domains shown)
VH: QVQLVESGGGVVQPGRSLRLSCAASGFIFSSYAMHWVRQAPGNGLEWVAFMSYDGSNKKYADSVKGRFTISRDNPKNTLYLQMNSLRAEDTAVYYCARDRGIAAGGNYYYYGMDVWGQGTTVTVSS
VL: EIVLTQSPATLSLSPGERATLSCRASQSVYSYLAWYQQKPGQAPRLLIYDASNRATGIPARFSGSGSGTDFTLTISSLEPEDFAVYYCQQRSNWPPFTFGPGTKVDIKR
B2: TNV196 (antibody, V domains shown)
VH: B1 VH with I28T, N43K, M51I, Y60S, I70V, P75S, Y80F, Y94F, A103G
VL: EIVLTQSPATLSLSPGERATLSCRASQSVYSYLAWYQQKPGQAPRLLIYDASNRATGIPARFSGSGSGTDFTLTISSLEPEDFAVYYCQQRSNWPPFTFGPGTKVDIK
B3: TNV86 (antibody, human IgG1, V domains shown)
VH: B1 VH
VL: B2 VL
notes: Totally human IgG1 kappa from hybridoma, tested as hybridoma supernatant; Variable regions identical to TNV148; also called GenTNV86.14.34; C417A

Experiments:
recombinant human TNFα [1] = target: T1, recombinant human TNFα (human, UniProt P01375 77-233, 125I-labeled in the receptor binding inhibition assay; unlabeled in the EIA); assay: Competition radioligand assay: inhibition of 5 ng/ml 125I-TNFα binding to plate-coated p55-sf2
T1 construct: also called huTNFα; tumor necrosis factor alpha

recombinant human TNFα [2] = target: T1, recombinant human TNFα; assay: cell-based or functional assay
recombinant human TNFα [3] = target: T1, recombinant human TNFα; assay: inhibition of 125I-TNFα binding to plate-coated p55-sf2; reference TNV118 and TNV14
Method: 50:1 of p55-sf2 at 0.5:g/ml in PBS was added to Optiplates to coat the wells during a one-hour incubation at 37° C. Serial dilutions of the eight TNV cell supernatants were prepared in 96-well round-bottom plates using PBS/0.1% BSA as diluent. […] The mixture was preincubated for one hour at RT. […] After 2 hrs at RT, Optiplates were washed three times with PBS-Tween. […] of Microscint-20 was added and the cpm bound determined using the TopCount […].
The concentrations of the TNV mAbs in their respective cell supernatants were first determined by standard ELISA analysis for human IgG.

Row | Binder | IC50 (read off the curve) (recombinant human TNFα [1]) | neutralizing TNFα bioactivity (recombinant human TNFα [2]) | fold better at blocking TNF binding than TNV118 and TNV14 (recombinant human TNFα [3])
1 | B1 | ~4 ng/mL | 4 fold | ~4 fold
2 | B2 | ~4 ng/mL | 4 fold | –
3 | B3 | – | – | ~4 fold
